From paper PMC7732855

B1: Listeria adhesion protein (LAP) from Listeria innocua F4248, expressed on the surface of Lactobacillus casei (strain LbcLAP^Lin) (natural protein)
chain: MAIKENAAQEVLEVQKVIDRLADNGQKALKAFESYNQEQVDNIVHAMALAGLDQHMPLAKLAVEETGRGLYEDKCIKNIFATEYIWNNIKNNKTVGVINEDTQTGVIEIAEPVGVVAGVTPVTNPTSTTLFKAIIAIKTRNPIIFAFHPSAQRCSSEAAKVVYDAAVAAGAPEHCIQWVEKPSLEATKQLMNHDKVALVLATGGAGMVKSAYSTGKPALGVGPGNVPAYIDKTAKIKRSVNDIILSKSFDQGMICASEQAVIVDKEVAKEVKAEMEANKCYFVKGAEFKKLESYVINPEKGTLNPDVVGKSPAWIANQAGFKVPEDTKILVAEIKGVGDKYPLSHEKLSPVLAFIEAANQAEAFDRCEEMLVYGGLGHSAVIHSTDKEVQKAFGIRMKACRIIVNAPSAQGGIGDIYNGFIPSLTLGCGSYGKNSVSQNVSATNLLNVKRIADRRNNMQWFKLPPKIFFEKYSTQYLQKMEGVERVFIVTDPGMVQFKYVDVVIEHLKKRGNDVAYQVFADVEPDPSDVTVYKGAELMKDFKPDTIIALGGGSAMDAAKGMWLFYEHPEASFFGLKQKFLDIRKRTFKYPKLGGKAKFVAIPTTSGTGSEVTPFAVITDKENNIKYPLADYELTPDVAIVDAQYVTTVPAHITADTGMDVLTHAIESYVSVMASDYTRGLSIRAIELVFENLRESVLTGDPDAREKMHNASALAGMAFANAFLGINHSLAHKIGPEFHIPHGRANAILMPHVIRYNALKPKKHALFPRYESFRADEDYARISRIIGFPAATTEEGVKSLVDEIIKLGKDVGIDMSLKGQNVAKKDLDAVVDTLADRAFMDQCTTANPKQPLVSELKEIYLEAYKGV

Biological target: heat shock protein 60 (Hsp60), surface-expressed on Caco-2 cells (human (endogenous in Caco-2)) (UniProt P10809)
Chain of UniProt P10809 (P10809 27-573): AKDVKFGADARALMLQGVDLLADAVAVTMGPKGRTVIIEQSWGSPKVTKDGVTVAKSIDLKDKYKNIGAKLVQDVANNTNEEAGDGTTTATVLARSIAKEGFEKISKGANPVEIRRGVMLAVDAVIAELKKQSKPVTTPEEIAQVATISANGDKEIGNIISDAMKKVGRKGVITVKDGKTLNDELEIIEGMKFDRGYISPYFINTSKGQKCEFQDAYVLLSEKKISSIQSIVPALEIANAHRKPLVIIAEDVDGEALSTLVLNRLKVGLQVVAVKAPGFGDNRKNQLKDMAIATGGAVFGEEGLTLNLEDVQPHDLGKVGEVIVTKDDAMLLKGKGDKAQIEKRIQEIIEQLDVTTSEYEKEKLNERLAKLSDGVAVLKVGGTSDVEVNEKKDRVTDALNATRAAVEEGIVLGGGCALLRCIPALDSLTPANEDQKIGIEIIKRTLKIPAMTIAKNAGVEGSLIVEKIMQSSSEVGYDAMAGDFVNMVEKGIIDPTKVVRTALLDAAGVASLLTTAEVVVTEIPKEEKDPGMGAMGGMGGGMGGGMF

Molecule	adhesion of the BLP strain (MOE 10, 1 h) to Hsp60^+ Caco-2 cells (Hsp60 overexpressed), relative to LbcWT [fold]	adhesion of the BLP strain (MOE 10, 1 h) to Hsp60^Vec Caco-2 cells (basal Hsp60), relative to LbcWT [fold]
Listeria adhesion protein (LAP) from Listeria monocytogenes F4244, expressed on the surface of Lactobacillus casei (strain LbcLAP^Lm) (natural protein)	9	4
B1	9	4
